# Results taken from paper PMC3898874.
# Where “and” joins values, the source holds several entries; their conditions need not be identical. Equal values may be shown once.
# T1: FLAG-tagged STAT1 (signal transducer and activator of transcription 1), P42224
# T1 chain: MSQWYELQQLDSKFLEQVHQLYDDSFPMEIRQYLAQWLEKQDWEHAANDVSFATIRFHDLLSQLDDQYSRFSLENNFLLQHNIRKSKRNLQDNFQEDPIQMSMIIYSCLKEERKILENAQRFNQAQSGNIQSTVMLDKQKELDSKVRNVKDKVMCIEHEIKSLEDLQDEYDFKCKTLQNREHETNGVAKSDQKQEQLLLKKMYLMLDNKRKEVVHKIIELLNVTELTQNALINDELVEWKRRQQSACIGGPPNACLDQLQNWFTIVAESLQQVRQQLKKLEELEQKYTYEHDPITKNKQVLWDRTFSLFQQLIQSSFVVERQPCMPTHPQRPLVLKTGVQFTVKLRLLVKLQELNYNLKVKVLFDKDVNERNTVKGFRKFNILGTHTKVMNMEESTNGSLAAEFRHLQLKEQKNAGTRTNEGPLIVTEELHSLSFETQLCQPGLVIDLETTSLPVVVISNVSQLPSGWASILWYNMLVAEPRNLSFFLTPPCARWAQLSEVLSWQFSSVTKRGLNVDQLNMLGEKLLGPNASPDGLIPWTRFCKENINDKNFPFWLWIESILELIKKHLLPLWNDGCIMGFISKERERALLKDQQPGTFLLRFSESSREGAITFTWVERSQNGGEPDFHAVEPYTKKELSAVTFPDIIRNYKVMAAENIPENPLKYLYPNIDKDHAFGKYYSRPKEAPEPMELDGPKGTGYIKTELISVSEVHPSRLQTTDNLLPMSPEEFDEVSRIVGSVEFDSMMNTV
# B1: FLAG-tagged STAT1 (signal transducer and activator of transcription 1), P42224 1-750 (natural protein)
# chain: T1 chain
# Target: T1, FLAG-tagged STAT1 (signal transducer …)
# Assay: co-IP; anti-FLAG M2 immunoprecipitation (protein A/G PLUS agarose, 4°C) from soluble whole-cell extracts (500 μg protein) of co-transfected HEK293T cells, untreated or treated 1 h with 50 U/ml IFNγ; extraction and wash buffer with 280 mM NaCl, 0.5% NP-40, 50 mM Tris/HCl pH 7.4; quantitative blots with anti-GFP and anti-β-arrestin1; control IP without FLAG-tagged STAT1
# Settings: remark: other sources report otherwise
binder,measurement,value
B1,fold stronger co-precipitation with FLAG-tagged STAT1 than β-arrestin1-GFP (signals normalised to inputs),3 fold and 6 fold
